In patent publication US6447783 (YEDA RESEARCH AND DEVELOPMENT, dated 2002):

B1: Full length mouse FGFR3 expressed in CHO cells (wild type KI and heparan-sulfate deficient 745) (receptor)
chain: EPPGPEQRVVRRAAEVPGPEPSQQEQVAFGSGDTVELSCHPPGGAPTGPTVWAKDGTGLVASHRILVGPQRLQVLNASHEDAGVYSCQHRLTRRVLCHFSVRVTDAPSSGDDEDGEDVAEDTGAPYWTRPERMDKKLLAVPAANTVRFRCPAAGNPTPSISWLKNGKEFRGEHRIGGIKLRHQQWSLVMESVVPSDRGNYTCVVENKFGSIRQTYTLDVLERSPHRPILQAGLPANQTAILGSDVEFHCKVYSDAQPHIQWLKHVEVNGSKVGPDGTPYVTVLKTAGANTTDKELEVLSLHNVTFEDAGEYTCLAGNSIGFSHHSAWLVVLPAEEELMETDEAGSVYAGVLSYGVVFFLFILVVAAVILCRLRSPPKKGLGSPTVHKVSRFPLKRQVSLESNSSMNSNTPLVRIARLSSGEGPVLANVSELELPADPKWELSRTRLTLGKPLGEGCFGQVVMAEAIGIDKDRTAKPVTVAVKMLKDDATDKDLSDLVSEMEMMKMIGKHKNIINLLGACTQGGPLYVLVEYAAKGNLREFLRARRPPGMDYSFDACRLPEEQLTCKDLVSCAYQVARGMEYLASQKCIHRDLAARNVLVTEDNVMKIADFGLARDVHNLDYYKKTTNGRLPVKWMAPEALFDRVYTHQSDVWSFGVLLWEIFTPGGPSPYPGIPVEELFKLLKEGHRMDKPASCTHDLYMIMRECWHAVPSQRPTFKQLVEDLDRILTVTSTDEYLDLSVPFEQYSPGGQDTPSSSSSGDDSVFTHDLLPPGPPSNGGPRT
notes: whole, on cells; also called FGFR3 transfected CHO-KI cells
B2: Soluble extracellular domain of murine FGFR1 coupled to human placental alkaline phosphatase (receptor)
chain: RPAPTLPEQAQPWGVPVEVESLLVHPGDLLQLRCRLRDDVQSINWLRDGVQLVESNRTRITGEEVEVRDSIPADSGLYACVTSSPSGSDTTYFSVNVSDALPSSEDDDDDDDSSSEEKETDNTKPNRRPVAPYWTSPEKMEKKLHAVPAAKTVKFKCPSSGTPNPTLRWLKNGKEFKPDHRIGGYKVRYATWSIIMDSVVPSDKGNYTCIVENEYGSINHTYQLDVVERSPHRPILQAGLPANKTVALGSNVEFMCKVYSDPQPHIQWLKHIEVNGSKIGPDNLPYVQILKTAGVNTTDKEMEVLHLRNVSFEDAGEYTCLAGNSIGLSHHSAWLTVLEALEERPAVMTSPLYLE
notes: extracellular domain; Collected from conditioned medium of transfected NIH 3T3 cells; also called FGFR1 fusion protein; FGFR-alkaline phosphatase fusion protein; not shown: human placental alkaline phosphatase

Legend:
[1] = target: T1, Recombinant mouse FGF9 (fibroblast growth factor 9) (mouse); test: 125I-FGF9 binding to FGFR3 transfected CHO 745 cells at 4 C, in the presence of 1 mg/ml heparin
[2] = target: T1, Recombinant mouse FGF9 (fibroblast …); test: 125I-FGF9 binding to FGFR3 transfected CHO-KI cells at 4 C, in the presence of 1 mg/ml heparin
[3] = target: T1, Recombinant mouse FGF9 (fibroblast …); test: FGF9 immobilised on heparin-sepharose, bound receptor-AP measured by alkaline phosphatase activity

Binder	Kd [1]	Kd [2]	binding result [3]
B1	0.1 nM	0.06 nM	–
B2	–	–	no binding
